How the values were obtained:
synthetic Aβ42 peptide = synthetic Aβ42 peptide (UniProt P05067)
Aβ42 oligomers = Aβ42 oligomers (UniProt P05067)
Aβ42 fibrils = Aβ42 fibrils (UniProt P05067)
[1] = target: protective protein/cathepsin A (PPCA) (UniProt P10619)
protective protein/cathepsin A (PPCA), sequence (P10619 29-480): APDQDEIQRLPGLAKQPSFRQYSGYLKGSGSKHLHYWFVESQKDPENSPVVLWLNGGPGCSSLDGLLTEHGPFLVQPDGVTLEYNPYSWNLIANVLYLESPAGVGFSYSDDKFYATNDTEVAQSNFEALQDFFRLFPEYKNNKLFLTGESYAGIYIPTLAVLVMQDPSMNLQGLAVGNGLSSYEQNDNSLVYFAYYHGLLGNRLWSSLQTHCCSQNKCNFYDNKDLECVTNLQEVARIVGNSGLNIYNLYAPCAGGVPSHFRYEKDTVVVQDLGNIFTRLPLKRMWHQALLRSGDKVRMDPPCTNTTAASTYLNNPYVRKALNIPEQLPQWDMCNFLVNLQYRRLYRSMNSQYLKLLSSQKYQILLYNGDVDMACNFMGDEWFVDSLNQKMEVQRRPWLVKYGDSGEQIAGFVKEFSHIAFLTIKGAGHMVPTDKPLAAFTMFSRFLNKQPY

cathepsin D, sequence (chain, as listed by the source): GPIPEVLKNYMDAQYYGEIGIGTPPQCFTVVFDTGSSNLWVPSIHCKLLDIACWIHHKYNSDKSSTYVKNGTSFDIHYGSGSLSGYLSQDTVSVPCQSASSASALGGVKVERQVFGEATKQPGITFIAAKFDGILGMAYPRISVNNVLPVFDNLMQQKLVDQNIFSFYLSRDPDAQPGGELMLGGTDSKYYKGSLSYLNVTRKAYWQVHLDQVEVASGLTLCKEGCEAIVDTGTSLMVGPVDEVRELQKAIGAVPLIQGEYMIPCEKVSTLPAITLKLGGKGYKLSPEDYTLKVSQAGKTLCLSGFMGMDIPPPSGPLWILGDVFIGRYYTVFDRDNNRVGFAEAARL
Aβ42 fibrils, sequence (P05067 whole entry, looked up): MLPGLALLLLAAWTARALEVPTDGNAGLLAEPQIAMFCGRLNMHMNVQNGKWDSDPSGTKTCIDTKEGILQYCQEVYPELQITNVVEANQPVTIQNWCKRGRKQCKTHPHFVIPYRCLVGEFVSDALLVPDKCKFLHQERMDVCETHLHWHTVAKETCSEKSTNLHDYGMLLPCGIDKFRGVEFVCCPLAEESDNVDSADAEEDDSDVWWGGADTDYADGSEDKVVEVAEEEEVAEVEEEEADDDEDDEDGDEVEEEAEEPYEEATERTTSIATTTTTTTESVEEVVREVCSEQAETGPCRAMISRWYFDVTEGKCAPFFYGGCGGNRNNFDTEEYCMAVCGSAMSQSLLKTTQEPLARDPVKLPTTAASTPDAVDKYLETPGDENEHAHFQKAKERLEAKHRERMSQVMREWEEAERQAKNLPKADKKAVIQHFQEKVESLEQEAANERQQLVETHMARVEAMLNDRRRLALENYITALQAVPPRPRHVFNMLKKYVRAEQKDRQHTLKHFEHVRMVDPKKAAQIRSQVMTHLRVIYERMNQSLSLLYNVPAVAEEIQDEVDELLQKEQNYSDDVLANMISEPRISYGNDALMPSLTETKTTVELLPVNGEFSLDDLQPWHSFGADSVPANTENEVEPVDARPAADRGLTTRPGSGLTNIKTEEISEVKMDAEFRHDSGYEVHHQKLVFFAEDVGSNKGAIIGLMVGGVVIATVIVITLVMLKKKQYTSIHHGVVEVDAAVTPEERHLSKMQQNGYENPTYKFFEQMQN
Aβ42 oligomers, sequence (P05067 whole entry, looked up): as above
synthetic Aβ42 peptide, sequence (P05067 whole entry, looked up, tested part not stated): as the sequence (P05067 whole entry, looked up) above
cathepsin L, sequence (chain, as listed by the source): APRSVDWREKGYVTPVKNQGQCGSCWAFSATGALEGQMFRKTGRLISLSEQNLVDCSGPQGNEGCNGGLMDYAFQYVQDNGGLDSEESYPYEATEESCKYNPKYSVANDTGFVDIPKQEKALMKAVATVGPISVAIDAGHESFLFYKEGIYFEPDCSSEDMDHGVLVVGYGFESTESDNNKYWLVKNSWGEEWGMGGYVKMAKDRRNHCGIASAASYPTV

Substance	western blot of Aβ42 treated with cathepsin B (synthetic Aβ42 peptide)	western blot (A11) of day 9 Aβ42 oligomers after overnight treatment with 90 ng enzyme (Aβ42 oligomers)	western blot (E610) of day 9 Aβ42 fibrils after overnight treatment with 90 ng enzyme (Aβ42 fibrils)	THT assay and western blot of Aβ42 treated with cathepsin D (synthetic Aβ42 peptide)	activation of cathepsin A (enzyme activity) [1]
cathepsin B	cathepsin B prevents aggregation of low molecular weight Aβ42 species and degrades Aβ42 monomers in a time dependent manner	did not reveal changes in intensity or size of oligomer band (lines 5, 6)	resulted in weak reduction/degradation of the fibril smear (line 5 compared to line 2)		
cathepsin D		did not reveal changes in intensity or size of oligomer band (lines 5, 6)	did not result in visible reduction/degradation of fibril smear or oligomer bands	strong prevention of aggregation of Aβ42 species, measured by THT; complete elimination Aβ42 monomers	
cathepsin L					Activation of 90 ng cathepsin A by cathepsin L

— patent US20170119861
